According to patent US20210220404A1 (Novartis, published 2021):
No end group written: not given here.

B1: human recombinant (r)BCMA_Fc-AF647 (Fc fusion)
chain: MLQMAGQCSQNEYFDSLLHACIPCQLRCSSNTPPLTCQRYCNASVTNSVKGTNA
modifications: cysteine pairing not given here; also: Alexa Fluor 647 label, Fc fusion tag, unspecified
notes: In-house flow cytometry staining reagent; not shown: Fc part of an in-house reagent

Legend:
[1] = molecular target: B1; assay: flow cytometry; rBCMA_Fc-AF647 staining of CAR-transduced primary human T cells, day 5 of culture (reported by the filing as CAR expression)
Procedure: (§1) BCMA CAR T cells were generated by starting with blood from healthy apheresed donors whose T cells (CD4+ and CD8+ lymphocytes) were obtained by negative selection for CD3+ T cells. These cells were activated by the addition of CD3/CD28 beads (Dynabeads® Human T-Expander CD3/CD28, Thermo Fisher Scientific) at a ratio of 1:3 (T cell to bead) in T cell medium (RPMI1640, 10% heat-inactivated fetal calf serum (FCS), 2 mM L-glutamine, 1× Penicillin/Streptomycin, 100 μM non-essential amino acids, 1 mM Sodium Pyruvate, 10 mM Hepes, and 55 μM 2-mercaptoethanol). T cells were cultured at 0.5×10⁶ T cells in 1 mL medium per well of a 24-well plate at 37° C., 5% CO₂. After 24 hours, when T cells were blasting, T cells were transduced with BCMA CAR virus at a multiplicity of infection (MOI) of 5. […] Aliquots of T cells were stained to measure CAR expression by flow cytometry at day 5 and 9 on a FACS Fortessa (BD). All BCMA CAR T cells were produced under research grade (i.e., not clinical grade) manufacturing conditions.
(§2) The BCMA-CAR surface expression and its stability was assessed by measuring CAR % and MFI (mean fluorescence intensity) at day 5 and day 9 using flow cytometry analyses of rBCMA_Fc-AF647 stained cells (FIG. 2 and Table 27).

[2] = molecular target: B1; assay: flow cytometry; rBCMA_Fc-AF647 staining of CAR-transduced primary human T cells, day 9 of culture (reported by the filing as CAR expression)
Procedure: as §1, §2

[3] = molecular target: B1; assay: flow cytometry, T cells with construct 244, day 8, rBCMA-Fc AF647 stain
Procedure: BCMA-CD19 dual or monoBCMA or monoCD19 CART cells were generated using human primary T cells (CD4+ and CD8+ lymphocytes) obtained by negative selection or positive selection via Prodigy upon processing blood from healthy apheresed donors. Before transduction, the T cells were activated using CD3/CD28 beads (Dynabeads® Human T-Expander CD3/CD28, Thermo Fisher Scientific) at a ratio of 1:3 (T cell to bead) in T cell medium (RPMI1640, 10% heat-inactivated fetal calf serum (FCS), 2 mM L-glutamine, 1× Penicillin/Streptomycin, 100 μM non-essential amino acids, 1 mM Sodium Pyruvate, 10 mM Hepes, and 55 μM 2-mercaptoethanol). The cells were cultured at a density of 0.5×10⁶/mL medium per well in a 24-well plate at 37° C., 5% CO₂. After 24 hours, when T cells were blasting, they were transduced with viruses at a multiplicity of infection (MOI) of 5 based on the upstream CAR titer. T cells began to divide in a logarithmic growth pattern, which was monitored by measuring the cell counts per mL, and T cells were diluted in fresh medium every two days and de-beaded and harvested for further analyses on day 8 or beyond depending on the size of the cells. Aliquots of T cells were stained to measure CAR expression by flow cytometry on day 7 or 8 on a FACS Fortessa (BD).

[4] = molecular target: T1, anti-BCMA CAR arm of duCD19.1-P2A-duBCMA.4 (construct 234); assay: flow cytometry, T cells with construct 234, day 8, MFI of rBCMA-Fc stain
T1 construct: also called c234; duCD19.1-duBCMA.4

245 = molecular target: T2, 245; assay: flow cytometry, T cells with construct 245, day 8, MFI of rBCMA-Fc stain
T2 construct: also called c245; Mono-duBCMA.4

Binder | CAR MFI on T cells (Day 5) [1] [MFI] | CAR MFI on T cells (Day 9) [2] [MFI] | binding result [3] | binding result [4] | binding result 245
Hy52 BCMA CAR (other, CAR on transduced JNL cells or primary human T cells) EVQLVESGGGLVKPGGSLRLSCAASGFTFSSFRMNWVRQAPGKGLEWVSSISSSSSYIYYADSVKGRFTISRDNAKNSLYLQMNSLRAEDTAVYYCARWLSYYGMDVWGQGTTVTVSSGGGGSGGGGSGGGGSGGGGSDIVMTQTPLSLPVTPGEPASISCRSSQSLLDSDDGNTYLDWYLQKPGQSPQLLIYTLSFRASGVPDRFSGSGSGTDFTLKIRRVEAEDVGVYYCMQRIGFPITFGQGTRLEIKTTTPAPRPPTPAPTIASQPLSLRPEACRPAAGGAVHTRGLDFACDIYIWAPLAGTCGVLLLSLVITLYCKRGRKKLLYIFKQPFMRPVQTTQEEDGCSCRFPEEEEGGCELRVKFSRSADAPAYQQGQNQLYNELNLGRREEYDVLDKRRGRDPEMGGKPRRKNPQEGLYNELQKDKMAEAYSEIGMKGERRRGKGHDGLYQGLSTATKDTYDALHMQALPPR | 33700 | 2860 | – | – | –
duCD19.1 anti-CD19 CAR (other, CAR on transduced primary human T cells; also called CTL119; Mono-duCD19.1) EIVMTQSPATLSLSPGERATLSCRASQDISKYLNWYQQKPGQAPRLLIYHTSRLHSGIPARFSGSGSGTDYTLTISSLQPEDFAVYFCQQGNTLPYTFGQGTKLEIKGGGGSGGGGSGGGGSQVQLQESGPGLVKPSETLSLTCTVSGVSLPDYGVSWIRQPPGKGLEWIGVIWGSETTYYQSSLKSRVTISKDNSKNQVSLKLSSVTAADTAVYYCAKHYYYGGSYAMDYWGQGTLVTVSSTTTPAPRPPTPAPTIASQPLSLRPEACRPAAGGAVHTRGLDFACDIYIWAPLAGTCGVLLLSLVITLYCKRGRKKLLYIFKQPFMRPVQTTQEEDGCSCRFPEEEEGGCELRVKFSRSADAPAYQQGQNQLYNELNLGRREEYDVLDKRRGRDPEMGGKPRRKNPQEGLYNELQKDKMAEAYSEIGMKGERRRGKGHDGLYQGLSTATKDTYDALHMQALPPR | – | – | no binding | – | –
B1 | – | – | – | binds | binds
B61-10 BCMA CAR (other, CAR on transduced JNL cells or primary human T cells) QVQLVESGGGVVQPGRSLRLSCAASGFTFSSYGMHWVRQAPGKGLEWVAVISYKGSNKYYADSVKGRFTISRDNSKNTLYLQMNSLRAEDTAVYYCGGSGYALHDDYYGLDVWGQGTLVTVSSGGGGSGGGGSGGGGSGGGGSQSALTQPASVSGSPGQSITISCTGTSSDVGGYNYVSWYQQHPGKAPKLMIYEVSNRLRGVSNRFSGSKSGNTASLTISGLQAEDEADYYCSSYTSSSTLYVFGSGTKVTVLTTTPAPRPPTPAPTIASQPLSLRPEACRPAAGGAVHTRGLDFACDIYIWAPLAGTCGVLLLSLVITLYCKRGRKKLLYIFKQPFMRPVQTTQEEDGCSCRFPEEEEGGCELRVKFSRSADAPAYQQGQNQLYNELNLGRREEYDVLDKRRGRDPEMGGKPRRKNPQEGLYNELQKDKMAEAYSEIGMKGERRRGKGHDGLYQGLSTATKDTYDALHMQALPPR | 27300 | 3290 | – | – | –
B61-02 BCMA CAR (other, CAR on transduced JNL cells or primary human T cells) QVQLVESGGGVVQPGRSLRLSCAASGFTFSSYGMHWVRQAPGKGLEWVAVISYKGSNKYYADSVKGRFTISRDNSKNTLYLQMNSLRAEDTAVYYCGGSGYALHDDYYGLDVWGQGTLVTVSSGGGGSGGGGSGGGGSGGGGSQSALTQPASVSGSPGQSITISCTGTSSDVGGYNYVSWYQQHPGKAPKLMIYEVSNRLRGVSNRFSGSKSGNTASLTISGLQAEDEADYYCSSYTSSSALYVFGSGTKVTVLTTTPAPRPPTPAPTIASQPLSLRPEACRPAAGGAVHTRGLDFACDIYIWAPLAGTCGVLLLSLVITLYCKRGRKKLLYIFKQPFMRPVQTTQEEDGCSCRFPEEEEGGCELRVKFSRSADAPAYQQGQNQLYNELNLGRREEYDVLDKRRGRDPEMGGKPRRKNPQEGLYNELQKDKMAEAYSEIGMKGERRRGKGHDGLYQGLSTATKDTYDALHMQALPPR | 29100 | 3470 | – | – | –
PI61 BCMA CAR (other, CAR on transduced JNL cells or primary human T cells; also called P161; Mono PI61) QVQLQESGGGVVQPGRSLRLSCAASGFTFSSYGMHWVRQAPGKGLEWVAVISYDGSNKYYADSVKGRFTISRDNSKNTLYLQMNSLRAEDTAVYYCGGSGYALHDDYYGLDVWGQGTLVTVSSGGGGSGGGGSGGGGSQSALTQPASVSGSPGQSITISCTGTSSDVGGYNYVSWYQQHPGKAPKLMIYDVSNRPSGVSNRFSGSKSGNTASLTISGLQAEDEADYYCSSYTSSSTLYVFGSGTKVTVLTTTPAPRPPTPAPTIASQPLSLRPEACRPAAGGAVHTRGLDFACDIYIWAPLAGTCGVLLLSLVITLYCKRGRKKLLYIFKQPFMRPVQTTQEEDGCSCRFPEEEEGGCELRVKFSRSADAPAYQQGQNQLYNELNLGRREEYDVLDKRRGRDPEMGGKPRRKNPQEGLYNELQKDKMAEAYSEIGMKGERRRGKGHDGLYQGLSTATKDTYDALHMQALPPR | 24400 | 2100 | – | – | –
Hy03 BCMA CAR (other, CAR on transduced JNL cells or primary human T cells) EVQLVESGGGLVQPGGSLRLSCAASGFTFSGFWMSWVRQAPGKGLEWVANIKQDGSEKYYVDSVRGRFTISRDNAKNSLYLQMNSLRAEDTAVYYCARALDYYGMDVWGQGTTVTVSSGGGGSGGGGSGGGGSGGGGSDIVMTQTPLSLPVTPGEPASISCRSSQSLLDSDDGNTYLDWYLQKPGQSPRLLIYTLSYRASGVPDRFSGSGSGTDFTLKISRVEAEDVGLYYCTQRLEFPSITFGQGTRLEIKTTTPAPRPPTPAPTIASQPLSLRPEACRPAAGGAVHTRGLDFACDIYIWAPLAGTCGVLLLSLVITLYCKRGRKKLLYIFKQPFMRPVQTTQEEDGCSCRFPEEEEGGCELRVKFSRSADAPAYQQGQNQLYNELNLGRREEYDVLDKRRGRDPEMGGKPRRKNPQEGLYNELQKDKMAEAYSEIGMKGERRRGKGHDGLYQGLSTATKDTYDALHMQALPPR | 9460 | 929 | – | – | –
